Results reported in patent publication US20140056907A1 (Regeneron, published 2014).

T1: human ASIC3 (human, UniProt Q9UHC3 1-531)
T1 construct: whole, on cells; Expressed on 3T3 cells (3T3/hASIC3) or HEK293 cells (HEK/hASIC3-QCells); also called hASIC3
T1 sequence (looked up): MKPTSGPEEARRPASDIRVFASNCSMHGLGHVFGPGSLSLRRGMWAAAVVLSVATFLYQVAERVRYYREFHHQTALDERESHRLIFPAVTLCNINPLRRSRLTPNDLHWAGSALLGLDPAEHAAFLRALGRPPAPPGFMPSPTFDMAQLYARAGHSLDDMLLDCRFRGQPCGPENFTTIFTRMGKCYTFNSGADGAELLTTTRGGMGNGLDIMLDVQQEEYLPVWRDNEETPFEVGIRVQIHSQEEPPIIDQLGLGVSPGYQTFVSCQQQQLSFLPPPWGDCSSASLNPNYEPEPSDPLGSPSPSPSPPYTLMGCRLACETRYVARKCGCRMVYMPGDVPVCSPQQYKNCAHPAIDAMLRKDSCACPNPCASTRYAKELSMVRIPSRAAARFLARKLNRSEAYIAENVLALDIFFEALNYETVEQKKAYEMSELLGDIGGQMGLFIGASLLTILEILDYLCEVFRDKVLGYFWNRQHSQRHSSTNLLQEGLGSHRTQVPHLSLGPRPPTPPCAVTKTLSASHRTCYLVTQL

T2: human ASIC1/ASIC3 channels (co-expressed human ASIC1a and human ASIC3) (human, UniProt Q9UHC3 1-531)
T2 construct: whole, on cells; 3T3 cells co-expressing both subunits; also called 3T3/hASIC1/3; 3T3-hASIC1/ASIC3
T2 sequence 1: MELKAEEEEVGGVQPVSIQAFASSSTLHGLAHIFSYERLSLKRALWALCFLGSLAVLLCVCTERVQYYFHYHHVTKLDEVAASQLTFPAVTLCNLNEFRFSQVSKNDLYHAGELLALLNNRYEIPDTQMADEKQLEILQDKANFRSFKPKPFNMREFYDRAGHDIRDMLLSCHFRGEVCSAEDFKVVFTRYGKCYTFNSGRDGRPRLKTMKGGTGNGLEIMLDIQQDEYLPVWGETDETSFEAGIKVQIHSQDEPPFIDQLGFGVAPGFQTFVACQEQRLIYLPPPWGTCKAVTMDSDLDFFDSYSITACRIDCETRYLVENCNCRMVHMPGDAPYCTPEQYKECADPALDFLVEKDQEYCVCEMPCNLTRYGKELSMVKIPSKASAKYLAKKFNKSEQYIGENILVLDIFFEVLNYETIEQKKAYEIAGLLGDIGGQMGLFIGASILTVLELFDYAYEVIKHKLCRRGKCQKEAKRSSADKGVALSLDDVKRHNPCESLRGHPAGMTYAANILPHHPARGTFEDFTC
T2 sequence 2: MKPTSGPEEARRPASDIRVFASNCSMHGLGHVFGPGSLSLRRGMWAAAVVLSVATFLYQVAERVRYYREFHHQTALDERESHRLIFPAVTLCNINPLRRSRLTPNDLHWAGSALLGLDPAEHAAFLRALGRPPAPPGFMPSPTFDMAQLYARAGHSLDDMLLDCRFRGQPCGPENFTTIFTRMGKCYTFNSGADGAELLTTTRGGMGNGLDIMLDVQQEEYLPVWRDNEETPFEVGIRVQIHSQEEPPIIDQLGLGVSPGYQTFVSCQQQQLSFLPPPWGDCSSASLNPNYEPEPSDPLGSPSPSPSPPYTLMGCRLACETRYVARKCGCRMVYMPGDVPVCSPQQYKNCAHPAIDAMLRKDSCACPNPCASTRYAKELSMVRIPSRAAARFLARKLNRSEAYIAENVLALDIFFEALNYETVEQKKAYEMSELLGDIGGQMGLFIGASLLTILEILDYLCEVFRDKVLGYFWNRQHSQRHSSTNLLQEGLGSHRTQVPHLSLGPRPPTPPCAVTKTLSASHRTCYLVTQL

T3: human ASIC1 (human, UniProt P78348 1-528)
T3 sequence: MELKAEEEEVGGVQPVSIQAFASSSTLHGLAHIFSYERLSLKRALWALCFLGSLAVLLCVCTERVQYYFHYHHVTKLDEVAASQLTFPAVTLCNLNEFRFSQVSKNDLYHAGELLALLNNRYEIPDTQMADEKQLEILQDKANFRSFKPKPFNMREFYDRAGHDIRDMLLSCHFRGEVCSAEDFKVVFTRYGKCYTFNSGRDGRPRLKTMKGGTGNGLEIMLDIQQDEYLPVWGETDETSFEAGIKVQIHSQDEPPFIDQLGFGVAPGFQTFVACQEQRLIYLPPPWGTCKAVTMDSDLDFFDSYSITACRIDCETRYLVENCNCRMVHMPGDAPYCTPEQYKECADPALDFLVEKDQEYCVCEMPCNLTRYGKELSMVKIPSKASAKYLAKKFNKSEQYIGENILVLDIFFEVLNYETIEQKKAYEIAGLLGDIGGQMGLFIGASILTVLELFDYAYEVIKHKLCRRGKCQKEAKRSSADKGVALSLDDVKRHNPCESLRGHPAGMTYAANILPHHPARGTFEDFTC


Legend:
[1] = biological target: T1, human ASIC3; test: FACS, 3T3/hASIC3 cells, 10 nM antibody
Excerpt: (§1) For these experiments, four cell lines were constructed: (a) a mouse fibroblast 3T3 cell line stably transfected to overexpress full length human ASIC3 (3T3/hASIC3; amino acids 1-531 of NCBI accession number NP_{—}004760.1), (b) a 3T3 cell line stably transfected to co-express full length human ASIC1a and human ASIC3 (3T3/hASIC1/3; amino acids 1-528 of NCBI accession number NP_{—}001086.2 and amino acids 1-531 of NCBI accession number NP_{—}004760.1), (c) […] a stably transfected 3T3 cell line expressing the full-length mouse ASIC3 channel (3T3/mASIC3; amino acids 1-530 of NCBI accession number NP_{—}892045.2), and (d) a 3T3 cell line stably transfected to co-express full length mouse ASIC1a and mouse ASIC3 (3T3/mASIC1/3; amino acids 1-526 of NCBI accession number NP_{—}033727 and amino acids 1-530 of NCBI accession number NP_{—}892045.2). Antibody binding was determined using flow cytometry (FACS).
(§2) To perform the FACS binding experiments, adherent cells were collected with cold Millipore Accutase 3-5 minutes, spun and resuspended in ice-cold FACS buffer (PBS, 2% HI-FBS and 0.09% Na-azide). Anti-ASIC1 antibody at final concentrations of 10 nM was added for 20-30 minutes on ice. Cells were washed with 900 μL ice-cold FACS buffer, spun, and resuspended in 100 μL ice-cold FACS buffer. A secondary antibody which recognizes human Fc (Jackson Immuno Research, #109-136-098) and is conjugated to allophycocyanin, was then added to the cell mixture at a final concentration of 2.5 ug/mL. After incubating for 20 minutes on ice, the cells were washed and resuspended in FACS buffer, then sorted and analyzed on a flow cytometer (FACSCanto II, BD Biosciences, San Jose, Calif.) to determine relative binding by the candidate antibodies to the tested cell lines. Histograms of cells stained with anti-ASIC1 antibodies were compared with those of cells stained with secondary antibody alone. Percentage of ASIC1 signal over secondary antibody alone was calculated using FlowJo software (Tree Star, Ashland, Oreg.).

[2] = biological target: T2, human ASIC1/ASIC3 channels …; test: FACS, 3T3/hASIC1/3 cells, 10 nM antibody
Excerpt: as §1, §2

[3] = biological target: T3, human ASIC1; test: cell-based or functional assay
[4] = biological target: T3, human ASIC1; test: cell-based or functional assay; remark: listed apart in the source

| binding result [1] | binding result [2] | Current inhibition (%) at 100 nM antibody, Q-Patch, pH 6.0 [3] | apparent IC50, human ASIC1 current, Q-Patch [4] | Binder |
| --- | --- | --- | --- | --- |
| binds | binds | 85% | > 10 nM | H3M6726N (antibody, V domains shown, Chimeric: human variable, mouse constant domains; H3M prefix marks the Fc, isotype not spelled out) VH: EVQLLESGGVLVQPGGSLRLSCAASGFNFNNYDMSWVRQAPGKGLEWVSVISASGRNTYYADSVKGRFTISRDNSKISLYLQMNSLRPEDTAVYYCAKDHLVHYYYGMDVWGQGTTVTVSS VL: DIMMTQSPLSLSVTPGEPASISCRSSQSLLHSNGYNYLDWYLQKSGQSPHLLIYLGSNRASGVPDRFSGSGSGTDFTLKISRVEAEDGGVYYCMQALQTPRTFGQGTKVEIK |
| binds | binds | 100% | ≤ 10 nM | H3M7102N (antibody, V domains shown, Chimeric: human variable, mouse constant domains; H3M prefix marks the Fc, isotype not spelled out) VH: EVQLLASGGGLVQPGGSLRLSCAASGFTFSSFAMSWVRQAPGKGLEWVSGISGSGGSTYYADSVKGRFTISRDNSKNTLYLQMNSLRAEDTAAYYCAKEAYKWQPWGQGIRVTVSS VL: DIQMTQSPSTLSASVGDRVSITCRASQSISSWLAWYQQKPGKAPKLLIYKASNLDSGVPSRFSGSGSGTDFTLTISSLQPDDFATYYCQQYNSYSYTFGQGTKLEIK |
